In PMC9723635 one finds binding signal and Kd data, which are given here for 2 substances.

Data set [1] relates to RBPMS-A T/E. Description: UV crosslinking. The note with it: 4 uM protein, with 20% HeLa nuclear extract, EMSA: 50 mM HEPES pH 7.2-7.9, 15 mM MgCl2, 25% glycerol, 5 mM DTT, 45 mM KCl, 5 ug tRNA, 20 fmol RNA, 25 min at 30 C, then 5 ug heparin 5 min at 30 C. In general terms: A gel shift assay detects complexes by their altered migration in electrophoresis.
Another data set concerns RBPMS-A T/A. Description: EMSA. To be noted: apparent Kd, Hill fit; tRNA and heparin present; EMSA: 50 mM HEPES pH 7.2-7.9, 15 mM MgCl2, 25% glycerol, 5 mM DTT, 45 mM KCl, 5 ug tRNA, 20 fmol RNA, 25 min at 30 C, then 5 ug heparin 5 min at 30 C; 4% ….
In data set [2] the test system is RBPMS-A T/E. In words: EMSA. The note with it: apparent Kd, Hill fit; tRNA and heparin present; EMSA: 50 mM HEPES pH 7.2-7.9, 15 mM MgCl2, 25% glycerol, 5 mM DTT, 45 mM KCl, 5 ug tRNA, 20 fmol RNA, 25 min at 30 C, then 5 ug heparin 5 min at 30 C; 4% ….

Regarding Tpm1 UV-crosslinking RNA, the binding signal in the data set on RBPMS-A T/E [1] was 7.8 % of WT.

With “Tpm1 exon 3 upstream intron EMSA RNA (three tandem CAC motifs)”, the Kd stood at 268 nM in the data set with RBPMS-A T/A and 756 nM in the data set with RBPMS-A T/E [2].
